For this test, the target named is CD16 (activating FcγRIIIa, CD16a) on NK cells (UniProt P08637). Description: cell-based or functional assay.

Consider 2 substances from patent publication US20260144872A1.

Several values for one entry are separate records, joined by “and”; a condition that tells them apart may be missing. Equal values may be shown once.

Sequence of UniProt P08637 (P08637 17-254 limits assumed): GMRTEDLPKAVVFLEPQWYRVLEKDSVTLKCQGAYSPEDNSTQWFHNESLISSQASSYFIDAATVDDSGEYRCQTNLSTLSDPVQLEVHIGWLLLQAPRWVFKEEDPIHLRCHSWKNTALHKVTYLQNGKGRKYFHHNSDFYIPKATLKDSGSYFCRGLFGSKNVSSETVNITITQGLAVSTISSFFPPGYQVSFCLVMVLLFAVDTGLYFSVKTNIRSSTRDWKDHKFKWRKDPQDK

As to “a disintegrin and metalloproteinase domain-containing protein 17 (ADAM17) (from UniProt P78536 215-824) (enzyme)”, the CD16 positive % on NK cells after PMA (1 ug/mL, 1 hour), EP controls (ADAM17 intact) is 0.62 to 6%.
Turning to “a disintegrin and metalloproteinase domain-containing protein 17 (ADAM17) (from UniProt P78536 215-824)”, the CD16 positive % on NK cells after PMA (1 ug/mL, 1 hour), ADAM17 edited cells was 72.4% and 92%.
